Consider two molecules from patent US8329178B2, “Antibodies against CXCR4 and methods of use thereof” (Dana-Farber Cancer Institute, Inc., dated 2012).

The experiment deals with CXCR2/CXCR4 chimera 4442 (human, UniProt P61073). The experiment can be described thus: FACS, 293T cells expressing CXCR4 variants.

B1: 33-IgG1 (antibody, V domains shown)
VH: QVTLKESGGGVVQPGRSLRLSCAASGFTFTNYGLHWVRQAPGKGLEWVAVISHDGTKKYYADSVKGRFTISRDSSENTLYLQMNSLRPEDSALYYCARDGGYCSGGRCYSYGMDVWGQGTTVTVSS
VL: QSVLTQPPSASGTPGQRVTISCSGSRSNIGSNTVNWYQQLPGTAPKLLIYTNNQRPSGVPDRFSGSKSGTSASLAITGLQAEDEADYYCLSFDSSLTSYVFGTGTKVTVLG
Consider B1, for which the “binding to cells expressing the variant (+%)” value was 99.5%.

B2: 48-IgG1 (antibody, V domains shown)
VH: QVQLVQSGGGVVLPGRSLRLSCVASGFTFRRYGMHWVRQAPGKGLEWVSLISYDGSKTFYGESVKGRFTISRDNSKNTLYLQMNSLRAEDTAVYYCARATVTTDGYYYMDVWGKGTTVTVSS
VL: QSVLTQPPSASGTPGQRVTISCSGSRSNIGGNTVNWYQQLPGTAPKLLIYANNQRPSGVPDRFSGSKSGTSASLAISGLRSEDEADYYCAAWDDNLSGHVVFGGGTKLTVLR
For the molecule B2, the “binding to cells expressing the variant (+%)” value turned out to be 91.9%.
